# Patent publication US11702469B2, “Recombinant EGFL7, EGFL7 antibodies, and uses thereof” (Ohio State Innovation Foundation, priority 2017, dated 2023)
# Columns and labels:
# [1] = tested on: NICD; assay: NICD immunoblot in primary AML blasts; assay type: cell-based, human; conditions: 100 μg/ml, 2 hrs, n=3, vs IgG
# Description: FIG. 23A-23E. EGFL7 suppresses NOTCH signaling in human AML patient blasts. (FIG. 23A) Primary blasts from AML patients (n=3) were cultured in SFEM medium with 2% BSA in the presence or absence (Unstim) of 0.25 μM rEGFL7 for 4 h. Total proteins were extracted for immunoblotting of NICD (cleaved NOTCH1) with GAPDH as loading control. (FIG. 23B) Total RNA was extracted for quantitative real time (qRT-PCR) analysis of HES1 mRNA with β-ACTIN as internal control. *p<0.05 vs un-stimulated control (Unstim). (FIG. 23C) qRT-PCR for NOTCH2 mRNA at 4 h and 24 h after stimulation of primary AML blasts with 0.25 uM rEGFL7 or unstim controls. (FIG. 23D) Primary blasts from AML patients (n=3) were cultured in SFEM medium in the absence or presence of 100 μg/ml of normal IgG or anti-human EGFL7 antibody for 2 h. Total protein was extracted for immunoblotting of NICD with GAPDH as loading control. […] Total RNA was extracted for quantitative real time RT-PCR analysis of HES1 mRNA with β-ACTIN as internal control. *p<0.05, ***p<0.001 vs IgG.
# Cells were lysed in 100 μl of Pierce RIPA buffer (Cat. #8990, Thermo Scientific) supplemented with protease and phosphatase inhibitors (Roche) on ice for 20 min. […] Immunoreactive bands were detected using ECL Select Western Blotting Detection Reagent (GE Healthcare). […]
# [2] = tested on: AML cell lines; assay: Apoptosis (AnnexinV/7AAD) in AML cell lines; assay type: cell-based, human; conditions: 50 μg/ml, forty-eight hours, vs IgG control
# Description: FIG. 9. […] Forty-eight hours after IgG control vs. @E7 antibody treatment (50 μg/ml) of AML cell lines apoptosis was evaluated by AnnexinV/7AAD staining. * indicates P<0.05, ** indicates P<0.01.
# For the evaluation of apoptosis, cells were stained with Annexin V and 7-AAD as previously described^16, 21 For the evaluation of cell proliferation, AML cell lines were incubated with BrdU, fixed, permeabilized and stained with APC-conjugated anti-BrdU antibody, according to the instructions of the manufacturer (BD Biosciences) and as previously described^16, 21 The proliferating fraction of the cells (i.e., the BrdU positive cells) was evaluated with flow cytometry (LSRII, BD Biosciences). For cell differentiation analysis, cells were stained with an anti-CD11B antibody (BD Biosciences) and analyzed by flow cytometry.
molecule,measurement,setting,value
"Parsatuzumab: Anti-human EGFL7 therapeutic antibody (Parsatuzumab) obtained from Creative Biolabs; blocking monoclonal antibody (antibody, chains of the INN, looked up, V domains shown) VH: EVQLVESGGGLVQPGGSLRLSCAASGYTFIDYYMNWVRQAPGKGLEWVGDINLDNSGTHYNQKFKGRFTISRDKSKNTAYLQMNSLRAEDTAVYYCAREGVYHDYDDYAMDYWGQGTLVTVSS VL: DIQMTQSPSSLSASVGDRVTITCRTSQSLVHINAITYLHWYQQKPGKAPKLLIYRVSNRFSGVPSRFSGSGSGTDFTLTISSLQPEDFATYYCGQSTHVPLTFGQGTKVEIK",NICD levels,[1],significant increases in NICD levels
same,apoptosis (AnnexinV/7AAD),[2],increased apoptosis
